# Tests used:
# [1] = target: adipokinetic hormone receptor (AKHR) of Monochamus alternatus, overexpressed in Drosophila S2 cells (Monochamus alternatus)
# [2] = system: T1, adipokinetic hormone receptor (AKHR); test: Microscale thermophoresis with AKHR-GFP in S2 cell lysate; supported by calcium imaging in AKHR-expressing S2 cells ([…] asc-C9); type: binding, Monochamus alternatus
# T1 construct: GFP-tagged AKHR in S2 cell lysate (AKHR-GFP fusion protein)
Substance,"calcium mobilization (Fluo-4 imaging) in AKHR-expressing S2 cells, dose-response to AKH; no response with an empty vector [1] [nM]",Kd [2] [µM]
M. alternatus AKH peptide (adipokinetic hormone),30,–
asc-C9,–,272

# Source: paper PMC12915204, “A Cold Stress‐Activated Endocrine Sentinel Chemical Hormone Promotes Insect Survival via Mitochondrial Adaptations Through the Adipokinetic Hormone Receptor” (Advanced Science, 2025)
